Test results taken from patent publication US20240301076A1 (CEPHALON, published 2024).
Changes are numbered by the printed parent chain. Names and notes keep the numbering of the source.

B1: BKO-6A1_b (antibody, human IgG4 S228P, lambda, V domains shown)
VH: QVQLKQWGAGLLKPSETLSLTCAVYGGSFSGYYWTWIRQPPGKGLEWIGEINHSGSTNYNPSLKSRVTMSVDTSKNQFSLKLRSVTAADTAVYYCARGEVRGLITLYWYFDVWGRGSLVTVSS
VL: SSELTQDPAVSVALGQTVRITCQGDSLRSYYASWYQQKPGQAPVLVIYGKNNRPSGIPDRFSGSSSGNTASLTITGAQAEDEADYYCNSRDSSGNHVVFGGGTKLTVLG
notes: recombinant human IgG4 S228P, lambda
B2: BKO_7C11 (antibody, human IgG4 S228P, lambda, V domains shown)
VH: B1 VH with K5Q, T35S, G55R, S56N, M69I, R83S, L103V, I104F, S117T
VL: B1 VL with D7G, D25N, S29F, K38R, V44I, G49D, N95Y, H96Y, V97M, V98I
notes: as for B1
B3: BKO-8C4 (antibody, human IgG4 S228P, lambda, V domains shown)
VH: QLQLQESGPGLVKPSETLSLTCTVSGGSIRTSSYYWGWIRQPPGKGLEYIGSIYYSGTTYYNPSLKSRVTMSVDTSKNQFSLKLSSVTAADTAVYYCARHGRVREVPPFDYWGQGTLVTVSS
VL: B1 VL with S29Y, G49D, K50E, N52S, T73R, A77T, S92T, V97W, V98A
notes: as for B1
B4: BKO-10G10 (antibody, human IgG4 S228P, lambda, V domains shown)
VH: QLQLQESGPGLVKPSETLSLTCTVSGGSIRRSSYYWGWIRQPPGKGLEWIGSFYNSGNTYYKPSLKSRVAISVDTPKNQFSLKLSSVTAADTAVYYCARGYSSGGFDPWGQGTLVTVSS
VL: QSALTQPASVSGSPGQSITISCTGTSSDVGGYNYVSWCQQHPGKAPKIMIFDVSNRPSGVSNRFSGSKSGNTASLTISGLQAEDEADYYCSSYTSSSTWVFGGGTRLTVLG
notes: as for B1
B5: BKO-4A8 combinatorial variant 102c (antibody, human IgG4 S228P, lambda, V domains shown)
VH: EVQLLESGGGLVQPGGSLRLSCAASGFTFSSSTQSWVRQPPGKGLEWVSAISGRGRSTYYADSVKGRFTISRDNSKNTLYLQMNSLRAEDTAVYYCAIQEGYWGQGILVTVSS
VL: QSALTQPPSASGSPGQSVTISCIGTSSDVGGYNYVSWYQQHPGKAPKLMIYEVSKRPSGVPDRFSGSKSGNTASLTVSGLQAEDEADYYCSSYAGSNNFGVFGGGTKLTVLG
notes: IgG4 S228P, lambda
B6: BKO-7G10_a (antibody, human IgG4 S228P, lambda, V domains shown)
VH: EVQLLESGGGLVQPGGSLRLSCAVSGFTFSNYAMTWVRQAPGKGLEWVSAISGRGSRTYYADSVKGRFTISRDTSKNTLYLQMNSLRAEDTAVYYCAKMDYWGQGTLVTVSS
VL: B5 VL with I23T, Y51F
notes: as for B1
B7: BKO-7H8_b (antibody, human IgG4 S228P, lambda, V domains shown)
VH: B5 VH with F27Y, S30T, Q34M, P40A, S49T, R56G, S57R, E100L, Y102N
VL: B5 VL with I23T, V29I, M49V, S54N, K55M, D62A, S96N, N97D, T109S
notes: as for B1
B8: BKO-8G3_b (antibody, human IgG4 S228P, lambda, V domains shown)
VH: EVQLLESGGGLVQPGGSLRLSCAASGFTFSSYAMSWVRQAPGKGLEWVSAITGSGGSTYYADSVKGRFTISRDKSKNTLYLQMNSLRAEDTAVYYCAIRLGYWGQGSLVTVSS
VL: B5 VL with I23T, A45V, M49V
notes: as for B1
B9: BKO-9A8 (antibody, human IgG4 S228P, lambda, V domains shown)
VH: EVQLLESGGGLVQTGGSLRLSCAASGFTFSSNTMSWVRQAPGKGLEWVSAISGSGGRTYYVDSVKGRFTISRDNSKNTLYLQMHSLRAEDTAVYYCAIQLGSWGQGILVTVSS
VL: B5 VL with I23T, G31A, S54T, S96N
notes: as for B1
B10: BKO-8B6 (antibody, human IgG4 S228P, lambda, V domains shown)
VH: B8 VH with Y32N, T52S, G53N, G56R, K74S, Q82L, T91S, R99K
VL: B5 VL with I23T, I50M, N97D, K107R
notes: as for B1
B11: BKO-4A8-105c (antibody, human IgG4 S228P, lambda, V domains shown)
VH: B5 VH with R54S, R56G, E100A
VL: B5 VL
notes: IgG4 S228P, lambda
B12: BKO-4A8-103c (antibody, human IgG4 S228P, lambda, V domains shown)
VH: B5 VH with R54S, R56G, E100M
VL: B5 VL
notes: IgG4 S228P, lambda
B13: BKO-4A8-104c (antibody, human IgG4 S228P, lambda, V domains shown)
VH: B5 VH with R54S, R56G, E100K
VL: B5 VL
notes: IgG4 S228P, lambda
B14: BKO-4A8 combinatorial variant 106c (antibody, human IgG4 S228P, lambda, V domains shown)
VH: B5 VH with R54S, R56G
VL: B5 VL
notes: IgG4 S228P, lambda

Experiments:
human CXCR2 [1] = molecular target: T1, human CXCR2 (human, UniProt P25025 1-360); test: flow cytometry, transfected Expi293F cells
T1 construct: also called CXC chemokine receptor 2; hCXCR2
T1 sequence: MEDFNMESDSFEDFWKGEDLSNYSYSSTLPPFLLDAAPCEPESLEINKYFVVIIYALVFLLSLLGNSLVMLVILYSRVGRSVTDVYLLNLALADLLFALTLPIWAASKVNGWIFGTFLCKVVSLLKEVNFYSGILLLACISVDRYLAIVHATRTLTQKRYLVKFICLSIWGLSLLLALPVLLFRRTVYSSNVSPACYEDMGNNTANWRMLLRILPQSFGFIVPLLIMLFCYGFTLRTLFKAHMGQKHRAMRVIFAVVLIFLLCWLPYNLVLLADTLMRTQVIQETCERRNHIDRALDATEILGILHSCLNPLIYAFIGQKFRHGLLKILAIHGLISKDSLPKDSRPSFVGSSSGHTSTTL
Method: (§1) Harvested cells were resuspended in FACS buffer (1×PBS+0.5% (w/v) bovine serum albumin (BSA)+2 mM EDTA pH 7.2). Approximately 2×10⁵ cells were added per well in a 96-well round-bottomed plate. Cells were pelleted by centrifugation at 400 g for 5 mins at 4° C. and supernatants discarded. 25 μL of each test antibody or control antibody was added to the cells and incubated for 30 minutes at 4° C. Cells were washed twice in 100 μL FACS buffer followed by centrifugation at 400 g for 5 mins at 4° C.
(§2) For detection, 50 μL of secondary antibody (Table 2) was added to relevant samples. Commercially available antibodies that bound to transfected CXCR family members were used as positive controls to ensure that the cells were expressing the receptors. Cells were washed twice in 200 μL of FACS buffer followed by centrifugation at 400 g for 5 mins at 4° C. Before sample acquisition, cells were resuspended in 100 μL of FACS buffer. Samples were acquired using the high throughput sampler on a FACSCanto™ II cytometer (Beckton-Dickinson).
(§3) These antibody variable regions were then generated by gene synthesis and subcloned into mammalian expression vectors as described in General Methods. Antibodies were produced by co-expression of heavy and light chain plasmids in Expi293F™ cells and purified by protein A column chromatography as described in General Methods. Where several heavy and/or light chains were identified from the same hybridoma cells, each heavy chain was paired with each light chain and the resulting antibodies given suffix a, b, c, etc. Purified antibodies were desalted into Sorensen's PBS pH 5.8 and tested by flow cytometry for binding to Expi293F™ cells transfected with human CXCR2 or human CXCR1 and mock transfected Expi293F™ cells.

human CXCR1 = molecular target: T2, human CXCR1 (human, UniProt P25024 1-350); test: flow cytometry, transfected Expi293F cells
T2 sequence: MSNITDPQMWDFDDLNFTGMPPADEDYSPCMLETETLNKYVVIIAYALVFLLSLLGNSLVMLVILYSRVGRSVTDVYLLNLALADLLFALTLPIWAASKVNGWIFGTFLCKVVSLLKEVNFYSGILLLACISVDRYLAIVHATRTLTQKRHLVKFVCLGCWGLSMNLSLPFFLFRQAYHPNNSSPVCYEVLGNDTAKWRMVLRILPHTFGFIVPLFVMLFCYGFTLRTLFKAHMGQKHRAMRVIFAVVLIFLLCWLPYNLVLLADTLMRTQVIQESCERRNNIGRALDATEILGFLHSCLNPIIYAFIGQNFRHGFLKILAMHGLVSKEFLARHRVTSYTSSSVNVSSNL
Method: as §1, §2, §3

human CXCR2 [2] = molecular target: T1, human CXCR2; test: flow cytometry, CXCR2-transfected Expi293F cells
Method: as §1, §2
A further six heavy chain combinational variants comprising four or more amino acid substitutions were produced as provided in Table 12. […] Each heavy chain was co-expressed with light chain c (SEQ ID NO:110) to produce an antibody variant. Antibodies were purified and tested for CXCR2 binding activity as described in General Methods.

cynomolgus monkey CXCR2 = molecular target: T3, cynomolgus monkey CXCR2 (cynomolgus monkey, UniProt Q28519 3-353 (rhesus entry)); test: flow cytometry, native CXCR2 on cynomolgus PBMC preparations
T3 construct: native on cynomolgus blood cells in the entries below; also called cynomolgus CXCR2
T3 chain: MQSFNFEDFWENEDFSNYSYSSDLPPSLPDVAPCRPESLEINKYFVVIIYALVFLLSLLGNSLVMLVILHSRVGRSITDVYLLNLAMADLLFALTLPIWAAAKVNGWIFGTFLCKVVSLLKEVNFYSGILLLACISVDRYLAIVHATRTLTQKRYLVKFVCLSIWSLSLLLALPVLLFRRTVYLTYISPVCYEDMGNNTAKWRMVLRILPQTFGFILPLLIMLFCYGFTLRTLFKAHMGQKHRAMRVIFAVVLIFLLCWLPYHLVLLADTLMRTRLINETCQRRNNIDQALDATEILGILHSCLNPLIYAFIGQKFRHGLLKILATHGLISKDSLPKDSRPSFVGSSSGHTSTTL
Method: Whole human buffy coat, PBMC enriched fractions prepared from human peripheral blood buffy coat or cynomolgus monkey whole blood was used for analysis of antibody binding activity by flow cytometry. Briefly, blood was untreated or diluted 1:1 in sterile filtered room temperature phosphate-buffered saline (PBS). 30 mL samples were layered over 15 mL Lymphoprep™ (Stem Cell Technologies, cat #07851). Peripheral blood mononuclear cells (PBMC) were enriched by room temperature centrifugation at 700 g for 30 minutes with no braking. The PBMC layer was isolated and cells washed in PBS containing 2 mM EDTA with low speed centrifugation at 200 g, to remove platelet contamination. Whole blood or PBMC enriched cell fractions were resuspended in red blood cell lysing solution (BioLegend, 420301). Viable cell counts were determined and cells resuspended at 1×10⁷ cells per mL in FACS buffer (1×PBS+0.5% (w/v) BSA+2 mM EDTA pH 7.2).
Flow cytometry binding assays using whole blood or PBMC enriched preparations: Binding assays to detect CXCR2 on blood neutrophil populations using test antibodies were performed essentially as described for assays using transiently transfected Expi293F™ cells. […] Matched isotype control antibodies were included for comparison. […] Neutrophil populations were identified by characteristic granularity and size, and positive binding of commercially available antibodies against CD10 (Biolegend, clone Hl10a, catalogue number 312204). Cells were washed and fixed (BioLegend Fixation buffer, 420801) prior to analysis. The level of fluorescence on the cell surface was measured by flow cytometry.

human CXCR2 [3] = molecular target: T1, human CXCR2; test: cell-based or functional assay

Binder | binding result (human CXCR2 [1]) | binding result (human CXCR1) | EC50 (human CXCR2 [2]) [nM] | Max binding (MFI) (human CXCR2 [2]) | further results
B1 | binds | no binding | – | – | –
B2 | binds | no binding | – | – | –
B3 | binds | no binding | – | – | –
B4 | binds | no binding | – | – | –
B5 | – | – | 8.7 | 33000 | Max binding (MFI Percent of 4A8 WT) (human CXCR2 [2]): 53%
B6 | binds | no binding | – | – | –
B7 | binds | no binding | – | – | –
B8 | binds | no binding | – | – | binding result (cynomolgus monkey CXCR2): binds
B9 | binds | no binding | – | – | –
B10 | binds | no binding | – | – | –
B11 | – | – | 5.73 | 42700 | Max binding (MFI Percent of 4A8 WT) (human CXCR2 [2]): 52%; CXCL1 Fold Improvement over 4A8 WT (human CXCR2 [3]): 0.24 fold; CXCL1 IC50, Tango assay (human CXCR2 [3]): 4 nM; CXCL8 Fold Improvement over 4A8 WT (human CXCR2 [3]): 0.36 fold; CXCL8 IC50, Tango assay (human CXCR2 [3]): 1.85 nM
B12 | – | – | 5.15 | 44400 | Max binding (MFI Percent of 4A8 WT) (human CXCR2 [2]): 72%; CXCL1 Fold Improvement over 4A8 WT (human CXCR2 [3]): 2.55 fold; CXCL1 IC50, Tango assay (human CXCR2 [3]): 2.4 nM; CXCL8 Fold Improvement over 4A8 WT (human CXCR2 [3]): 0.53 fold; CXCL8 IC50, Tango assay (human CXCR2 [3]): 1.25 nM
B13 | – | – | 6.45 | 45100 | Max binding (MFI Percent of 4A8 WT) (human CXCR2 [2]): 54%; CXCL1 Fold Improvement over 4A8 WT (human CXCR2 [3]): 0.43 fold; CXCL1 IC50, Tango assay (human CXCR2 [3]): 2.17 nM; CXCL8 Fold Improvement over 4A8 WT (human CXCR2 [3]): 0.88 fold; CXCL8 IC50, Tango assay (human CXCR2 [3]): 0.75 nM
B14 | – | – | > 100 | 11600 | –
